Experimental data published in article PMC7117912.
Ends that are not written are not given here.

B1: ASNC*NMETM (fluorescently labeled high-affinity peptide for H2-D^b) (peptide)
peptide: ASNC(TAMRA)NMETM
B2: TQSC*NTQSI (fluorescently labeled medium-affinity peptide for H2-D^b) (peptide)
peptide: TQSC(TAMRA)NTQSI
B3: FLPSDC*FPSF (fluorescently labeled medium-affinity peptide for HLA-A*02:01) (peptide)
peptide: FLPSDC(TAMRA)FPSF

Assays:
[1] = target: H2-D^b (mouse MHC I heavy chain ectodomain) refolded with human β2-microglobulin (mouse | human); test: fluorescence polarisation; one-step dissociation, uncatalyzed: 300 nM MHC I loaded with TAMRA-labeled peptide, 1000-fold molar excess (300 µM) of unlabeled competitor peptide, no TAPBPR; 23°C, 1xHBS; one-phase exponential decay
[2] = target: HLA-A*02:01 (human MHC I heavy chain ectodomain, amino acids 1-278) refolded with human β2-microglobulin (human); test: fluorescence polarisation

| Binder | koff [1] [s⁻¹] | koff [2] [s⁻¹] |
| --- | --- | --- |
| B1 | 0.0002 |  |
| B2 | 0.00253 |  |
| B3 |  | 0.0019 |
